According to patent US20220409742A1, “NUCLEIC ACID NANOPARTICLES, PHARMACEUTICAL COMPOSITION COMPRISING SAME, DRUG COMPRISING DOXORUBICIN AND PREPARATION METHOD THEREFOR” (BAI YAO ZHI DA (BEIJING) NANOBIO TECHNOLOGY CO., LTD., priority 2018, published 2022):
{Biotin} = biotin attached at the strand end; {Cy3} = Cy3 fluorescent dye

B1: RNA nanoparticles: RNA nanoparticles self-assembled in Embodiment 1 from strands SEQ ID NO:52-54, C/U 2′F, 5′Biotin, 5′CY3 (nucleic acid)
chain 1: CGCGCGCCCACCAGCGUUCCGGGCGCCGC
chain 2: GCGGCGCCCGGUUCGCCGCCAGGCGGC
chain 3: GCCGCCAGGCGGCCAUAGCGGUGGGCGCGCG
modifications: chain 1: 2'-fluoro at CU, RNA at AG, 5' {Biotin}, backbone not given here; chain 2: 2'-fluoro at CU, RNA at AG, 5' {Biotin}, backbone not given here; chain 3: 2'-fluoro at CU, RNA at AG, 5' {Cy3}, backbone not given here; three-strand self-assembled RNA nanoparticle

How the values were obtained:
HepG2 cells = assay: Cytotoxicity of RNA nanoparticles in HepG2 cells (CellTiter-Glo); assay type: cell-based; details: 200 nM, 72 hours, CTG
Experimental: (1) A RPMI1640+10% FBS+1% PS medium was used to culture HepG2 cells under 37 DEG C. and 5% CO2.
(2) The HepG2 cells were digested by a trypsin, 100 μL of 5000 cells per well was inoculated in a 96-well plate, and cultured overnight under 37 DEG C. and 5% CO2.
(3) Cell supernatant was removed on the second day, a sample to be tested was diluted with the culture medium, 200 nM of RNAh, RNAh-Biotine, RNAh-Dox and Dox were respectively added, 100 μL each was added to the plated cells, and each sample was repeated for 4 times.
(4) After being cultured for 72 hours, 100 μL of a CTG reagent was added to each well, shaking was performed for 2 min, and standing was performed at a room temperature for 10 minutes, and a whole process was performed in the dark.
(5) Finally Soft Max ProS software was used for reading.

[1] = Doxorubicin loading rate, physical loading; assay type: physicochemical; details: mass ratio doxorubicin:RNA nanoparticles 1:1, 55 DEG C., 3 h
Experimental: 1) enabling a mass ratio of the doxorubicin and the RNA nanoparticles to be 1:1;
2) weighing 0.1 mg of a doxorubicin original drug and dissolving in 50 μL of DMSO, and then adding 300 μL of the PBS and mixing uniformly;
3) enabling RNA particles to be dissolved in 200 μL of the […] treated water, and adding into the doxorubicin-PBS mixed solution, uniformly mixing, and adjusting a pH to be about 7.5;
4) putting the whole solution in a water bath kettle at 55 DEG C., and reacting for 3 h;
5) after the reaction, directly adding 10 times of anhydrous ethanol in volume, and precipitating at 4 DEG C. for 4 h; and
6) washing for 4 times with 10 times of the anhydrous ethanol, and transferring to 1.5 mL of a EP tube. Subsequently, measuring a loading rate, herein the measuring method is the same as above, and a measuring result is that a doxorubicin loading rate is 15.5.

[2] = Serum stability of RNA nanoparticles, RPMI 1640 with 10% serum, non-denaturing gel; assay type: in vitro ADME; details: for RNA quantification result, RNA nanoparticle: RPMI 1640 with 10% serum, 37 DEG C.
Experimental: (1) 350 μl of the PBS was absorbed into a RNA nanoparticle sample, and adequately mixed uniformly.
(2) 2 μM of the RNA nanoparticles were incubated in the RPMI 1640 medium containing 10% serum.
(3) After being incubated at 37 DEG C. for 10 min, 1 h, 12 h, and 36 h, samples were taken respectively.
(4) After NanoDrop used for quantification, 200 ng of the RNA nanoparticlesnanoparticle were taken, the same volume of Tris-Glycine SDS sample buffer solution (2×) was added, and adequately mixed uniformly.
(5) A piece of Novex™ 8% Tris-Glycine Mini gel was taken, the samples were loaded in order, a program was set in 200 V, 30 min, and electrophoresis was started.
(6) After the electrophoresis was over, G250 staining was performed, it was placed on a horizontal shaker for 30 min to 1 h, and pictures were taken for imaging.

| Molecule | HepG2 cell proliferation (%) Mean ± SEM (n = 4) (HepG2 cells) [%] | doxorubicin loading rate [1] | serum stability (non-denaturing gel bands) ([2]; 1640 medium of 10% FBS, 10 min, 1 h, 12 h, 36 h at 37 DEG C.) | RNA quantification result, RNA nanoparticle ([2]; incubation 10 min) [ng/µL] | RNA quantification result, RNA nanoparticle ([2]; incubation 1 h) [ng/µL] | RNA quantification result, RNA nanoparticle ([2]; incubation 12 h) [ng/µL] | RNA quantification result, RNA nanoparticle ([2]; incubation 36 h) [ng/µL] | RNA quantification result, RNA nanoparticle ([2]; incubation time 0) [ng/µL] |
| --- | --- | --- | --- | --- | --- | --- | --- | --- |
| COc1cccc2c1C(=O)c1c(O)c3c(c(O)c1C2=O)C[C@@](O)(C(=O)CO)C[C@@H]3O[C@H]1C[C@H](N)[C@H](O)[C@H](C)O1 [doxorubicin] | 39.56 | – | – | – | – | – | – | – |
| B1 | – | 15.5 | relatively stable | 193.5 | 176.0 | 175.5 | 214.8 | 178.8 |
